In general, IC50 refers to the concentration that inhibits the measured activity by half. As usually defined, the Ki is a dissociation constant, usually derived from enzyme kinetics or from competition with a known ligand. Broadly, the Kd is the equilibrium constant for the complex coming apart.

Common to all, as to conditions: one partner purified
Assay [1] concerns the target T1, ETaR-GFP (UniProt P25101).
T1 construct: endothelin A receptor (ETaR) with GFP fused to its C-terminus (in cytosol); also called ETaR cells; ETaR-GFP cells; source: CHO cells stably expressing ETaR-GFP (provided by Gmax Biopharm LLC; clone S-33 for vesicles); on cells, and in vesicles prepared from them; not shown: GFP, C-terminal, kept
Description: flow cytometry on cells; cells stably expressing ETaR-GFP incubated with purified full-length or scFv-Fc antibodies for 30 min, then PE-conjugated anti-IgG (Fig. 4c, 4d, 5b). In general terms: A flow cytometer gives signals particle by particle.

Assay [2] has as its target T2, endothelin A receptor (ETaR) (Homo sapiens (assumed), UniProt P25101).
T2 construct: endothelin A receptor (ETaR), a GPCR; plasmid and cells were gifts from Gmax Biopharm LLC; also called GPCR; ETaR-expressing CHO cells; source: CHO cells stably expressing and displaying ETaR (provided by Gmax Biopharm LLC); on cells, and in vesicles prepared from them
Put plainly: flow cytometry on cells; competition of unlabelled full-length antibodies, obtained similarly as for scFv; L = 13 nM; Ki = IC50/(1 + L/Kd).

For assay [3], the target named is T2, endothelin A receptor (ETaR). Put plainly: flow cytometry on cells; purified full-length antibodies titrated on ETaR-expressing CHO cells as for scFv; PE-conjugated anti-IgG; Kd from the dose-response curve.
For assay [4] the target is unchanged. Description: flow cytometry on cells; Ki of purified scFv-Fc on ETaR-expressing cells; tracer and L not told for this format.
In assay [5] the target is T1, ETaR-GFP. Description: flow cytometry on cells; cells expressing ETaR-GFP incubated with purified scFv-His for 30 min, then anti-his-PE antibody (Fig. 4b).
Assay [6] concerns the target T2, endothelin A receptor (ETaR). Description: flow cytometry on cells; purified scFv-His at 1 to 316 nM on ETaR-expressing CHO cells, 1 h at 4 °C; FITC-conjugated anti-His; Kd from the dose-response curve (GraphPad PRISM 5.0).
The target is the same in assay [7]. Description: flow cytometry on cells; competition: unlabelled scFv at 0.01 to 316 nM against FITC-labeled wild-type anti-GPCR at L = 150 nM on ETaR-expressing CHO cells, 1 h at 4 °C; Ki = IC50/(1 + L/Kd).

T2 sequence (P25101 21-427): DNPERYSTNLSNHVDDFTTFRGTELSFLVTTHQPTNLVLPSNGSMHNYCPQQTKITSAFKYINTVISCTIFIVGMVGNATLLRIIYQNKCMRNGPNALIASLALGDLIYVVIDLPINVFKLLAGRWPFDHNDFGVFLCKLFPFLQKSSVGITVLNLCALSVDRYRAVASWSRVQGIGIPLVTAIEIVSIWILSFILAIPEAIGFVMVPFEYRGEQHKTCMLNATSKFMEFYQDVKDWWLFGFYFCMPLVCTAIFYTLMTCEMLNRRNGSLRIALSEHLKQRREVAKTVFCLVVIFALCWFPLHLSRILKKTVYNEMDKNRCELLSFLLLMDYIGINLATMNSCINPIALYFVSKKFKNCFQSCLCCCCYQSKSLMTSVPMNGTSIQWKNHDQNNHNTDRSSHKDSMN
T1 sequence (P25101 21-427): as above

B1: anti-GPCR (ETaR) antibody 80H4, full-length, mutant with six mutations (S115N-S30R-D73H combined with T113A-V64M-N28Y) (antibody, V domains shown)
VH: EVQLLESGGGLVQPGGSLRLSCAASGFTFRSYGMSWVRQAPGKGLEWVSAISTNGATAYYADSMKGRFTISRHNSKNTLYLQMNSLRAEDTAVYYCATEKGAMGYWGQGTLVAVNS
VL: DIVMTQTPLSLSVTPGQPASISCRSSQYIVHSTGNTYLEWYLQKPGQSPQLLIYKVSNRFSGVPDRFSGSGSGTDFTLKISRVEAEDVGVYYCFQGSHFPFTFGQGTKVEIK
notes: heavy-chain variable region as the heavy chain of m13; heavy-chain constant region as in m13; light-chain variable region as the light chain of m13; light-chain constant region as in m13; also called the mutant with these six mutations; the full-length antibody clone containing the 6 point mutations; source: Expi293F, heavy and light chains co-expressed, purified from supernatant (Protein A); …
As to B1, the binding result with ETaR-GFP [1] was “binds”.

B2: anti-GPCR (ETaR) antibody 80H4, full-length, mutant D73H (antibody, V domains shown)
VH: EVQLLESGGGLVQPGGSLRLSCAASGFTFSSYGMSWVRQAPGKGLEWVSAISTNGATAYYADSVKGRFTISRHNSKNTLYLQMNSLRAEDTAVYYCATEKGAMGYWGQGTLVTVSS
VL: DIVMTQTPLSLSVTPGQPASISCRSSQNIVHSTGNTYLEWYLQKPGQSPQLLIYKVSNRFSGVPDRFSGSGSGTDFTLKISRVEAEDVGVYYCFQGSHFPFTFGQGTKVEIK
notes: heavy-chain variable region as the heavy chain of m13; heavy-chain constant region as in m13; light-chain variable region as the light chain of m13; light-chain constant region as in m13; source: Expi293F, heavy and light chains co-expressed, purified from supernatant (Protein A); copies: 2 + 2
Take B2: in assay [2], the half-inhibitory concentration (IC50) came to 30.6 nM and the Ki worked out at 15.7 nM. Also, the Kd in assay [3] stood at 13.6 nM.

B3: anti-GPCR (ETaR) antibody 80H4, scFv-Fc, mutant T113A-V64M-N28Y (Fc fusion)
VH: EVQLLESGGGLVQPGGSLRLSCAASGFTFSSYGMSWVRQAPGKGLEWVSAISTNGATAYYADSMKGRFTISRDNSKNTLYLQMNSLRAEDTAVYYCATEKGAMGYWGQGTLVAVSS
VL: DIVMTQTPLSLSVTPGQPASISCRSSQYIVHSTGNTYLEWYLQKPGQSPQLLIYKVSNRFSGVPDRFSGSGSGTDFTLKISRVEAEDVGVYYCFQGSHFPFTFGQGTKVEIK
notes: heavy-chain variable region as in m3; (G4S)3 linker; light-chain variable region as in m3; also called mutant scFv-Fc; source: Expi293F, transfected, purified from supernatant (Protein A); not shown: Fc, C-terminal, kept
B3 came in with a Ki in assay [4] of 40.2 nM.

B4: anti-GPCR (ETaR) antibody 80H4, scFv-Fc, wild type (Fc fusion)
VH: EVQLLESGGGLVQPGGSLRLSCAASGFTFSSYGMSWVRQAPGKGLEWVSAISTNGATAYYADSVKGRFTISRDNSKNTLYLQMNSLRAEDTAVYYCATEKGAMGYWGQGTLVTVSS
VL: DIVMTQTPLSLSVTPGQPASISCRSSQNIVHSTGNTYLEWYLQKPGQSPQLLIYKVSNRFSGVPDRFSGSGSGTDFTLKISRVEAEDVGVYYCFQGSHFPFTFGQGTKVEIK
notes: heavy-chain variable region as in m3; (G4S)3 linker; light-chain variable region as in m3; also called wild-type scFv-Fc; anti-GPCR-scFv-Fc; source: Expi293F, transfected, purified from supernatant (Protein A); not shown: Fc, C-terminal, kept
Take B4: the affinity in assay [4] corresponds to a Ki of 251 nM.

B5: anti-GPCR (ETaR) antibody 80H4, scFv-His, mutant R38Q (scFv, V domains shown)
VH: EVQLLESGGGLVQPGGSLRLSCAASGFTFSSYGMSWVQQAPGKGLEWVSAISTNGATAYYADSVKGRFTISRDNSKNTLYLQMNSLRAEDTAVYYCATEKGAMGYWGQGTLVTVSS
VL: DIVMTQTPLSLSVTPGQPASISCRSSQNIVHSTGNTYLEWYLQKPGQSPQLLIYKVSNRFSGVPDRFSGSGSGTDFTLKISRVEAEDVGVYYCFQGSHFPFTFGQGTKVEIK
notes: heavy-chain variable region as in m3; (G4S)3 linker; light-chain variable region as in m3; source: Expi293F, transfected, purified from supernatant (Ni-NTA); not shown: His tag, C-terminal, kept
Turning to B5, the binding result with ETaR-GFP [5] was “binds”.

B6: anti-GPCR (ETaR) antibody 80H4, full-length, mutant S115N-S30R-D73H (antibody, V domains shown)
VH: EVQLLESGGGLVQPGGSLRLSCAASGFTFRSYGMSWVRQAPGKGLEWVSAISTNGATAYYADSVKGRFTISRHNSKNTLYLQMNSLRAEDTAVYYCATEKGAMGYWGQGTLVTVNS
VL: DIVMTQTPLSLSVTPGQPASISCRSSQNIVHSTGNTYLEWYLQKPGQSPQLLIYKVSNRFSGVPDRFSGSGSGTDFTLKISRVEAEDVGVYYCFQGSHFPFTFGQGTKVEIK
notes: heavy-chain variable region as the heavy chain of m13; heavy-chain constant region as in m13; light-chain variable region as the light chain of m13; light-chain constant region as in m13; also called S115N-D73H-S30R; source: Expi293F, heavy and light chains co-expressed, purified from supernatant (Protein A); copies: 2 + 2
In the case of B6, in assay [2], the IC50 stood at 16 nM and the Ki was found to be 6.2 nM. Further, in assay [3], binding was characterised by a dissociation constant (Kd) of 8.27 nM.

B7: anti-GPCR (ETaR) antibody 80H4, scFv-His, mutant T113A-V64M (scFv, V domains shown)
VH: EVQLLESGGGLVQPGGSLRLSCAASGFTFSSYGMSWVRQAPGKGLEWVSAISTNGATAYYADSMKGRFTISRDNSKNTLYLQMNSLRAEDTAVYYCATEKGAMGYWGQGTLVAVSS
VL: DIVMTQTPLSLSVTPGQPASISCRSSQNIVHSTGNTYLEWYLQKPGQSPQLLIYKVSNRFSGVPDRFSGSGSGTDFTLKISRVEAEDVGVYYCFQGSHFPFTFGQGTKVEIK
notes: as for B5
With B7, the affinity in assay [6], expressed as Kd, was 87 nM. In assay [7], the concentration for half-maximal inhibition (IC50) amounted to 227 nM and the inhibition constant (Ki) was found to be 83.4 nM.
